Assay results taken from patent publication US20230133118A1, “COMPOSITIONS AND METHODS FOR TREATING CANCER” (Adagene AG, priority 2020, published 2023).
Where two headings read alike, the source gives them in different places.

Assays:
[1] = GLP repeat-dose toxicity and safety pharmacology in cynomolgus monkeys; type: in vivo, cynomolgus monkey
[2] = system: L5178-S murine T cell lymphoma; experiment: L5178-S murine T cell lymphoma syngeneic model; type: in vivo, DBA/2 mice; conditions: 20 mg/kg i.p. once every 3 days
Excerpt: (§1) The animals were randomized and treatment started when tumor volumes reach 50-80 mm^3, or on the day of cell inoculation (FIGS. 17A and 17C). Each group consisted of 8 tumor-bearing mice. […] Tumor growth and animal body weight were monitored every 2-3 days.

[3] = system: Lewis lung cancer cells; experiment: Lewis lung cancer model, ADG106 with cisplatin; type: in vivo, C57BL/6 mice; conditions: 5 mg/kg i.p.
Description: C57BL/6 mice (n=8 per group, female, 6-8 weeks old) were transplanted subcutaneously with 5×10^5 Lewis lung cancer cells. […] Tumor growth was monitored twice weekly and reported as mean tumor volume ±SEM over time.

[4] = human, in vivo, iv
Description: (§4) Blood samples for PK analysis were collected at Cycle 1 (Day 1: pre-dose and 2, 6, 12, and 24 hours after the end of infusion; once on Days 8, 15, and 22), Day 1 pre-dose and 2 hours after the end of infusion of subsequent cycles, and at the End of Treatment. […] PK parameters were estimated using a non-compartmental method with WinNonlin.

[5] = system: 4T1 breast cancer cells; experiment: 4T1 breast cancer model, ADG106 with docetaxel; type: in vivo, BALB/c mice; conditions: 5 mg/kg; ADG106 i.p. twice a week 4 doses, Docetaxel i.v. once a week 3 doses
Excerpt: (§2) Tumor growth was monitored twice weekly and is reported as mean tumor volume ±SEM over time.

[6] = system: CT-26 (colon carcinoma), H22 (liver cancer), EMT6 (breast cancer); experiment: Single agent efficacy in syngeneic mouse tumor models (CT-26, H22, EMT6); type: in vivo
[7] = system: Lewis lung cancer cells; experiment: Lewis lung cancer model, ADG106 with anti-PD-1 antibody 2E5; type: in vivo, C57BL/6 mice; conditions: 5 mg/kg i.p. twice a week for 2 weeks
Description: C57BL16 mice (n=8 per group, female, 6-8 weeks old) were transplanted subcutaneously with 5×10^5 Lewis lung cancer cells. […] Tumor growth was monitored twice weekly and reported as mean tumor volume ±SEM over time.

[8] = target: CD137 / CD137 ligand (4-1BBL) (Homo sapiens, UniProt Q07011); experiment: Blocking of CD137 / CD137 ligand interaction; type: binding
Excerpt: (§3) This was expected given that CD137 is known to function as a co-stimulatory T cell receptor. […] This property might prevent the potential of dual independent activation of CD137 potentially accounting for its distinct pharmacology and toxicology profile among this class of therapeutic antibodies.

[9] = system: T cells; experiment: T cell activation in vitro (with anti-CD3 antibody co-treatment); type: cell-based
Excerpt: To elaborate, there could be unquantified/uncertain combination effect with other MOAs, particularly with Immuno-oncology (IO) agents which could be potentially additive and/or synergistic for AEs.

[10] = system: LLC-CD20 cells; experiment: LLC-CD20 lung cancer model, ADG106 with rituximab; type: in vivo, C57BL/6 mice; conditions: 10 mg/kg i.p. twice a week for 3 weeks
Description: C57BL/6 mice (n=6 per group, female, 6-8 weeks old) were transplanted subcutaneously with 5×10^5 LLC-CD20 cells, a Lewis lung cancer cell line expressing CD20. […] Tumor growth was monitored twice weekly and reported as mean tumor volume ±SEM over time.

[11] = system: CD137 receptor; experiment: Cellular NFκB reporter gene assay (CD137-expressing NFκB-Luc Jurkat reporter cells); type: cell-based, human; conditions: functional cellular NFκB reporter gene assay
Description: The CD137-expressing NFκB-Luc Jurkat reporter cells were stimulated with the anti-CD137 antibodies in the absence (left panel) or presence (right panel) of co-cultured CHO-K1 cell expressing human FcγRIIb. Luciferase activity was measured by bioluminescence assay.

[12] = system: peripheral CD4+ and CD8+ T cells; experiment: Ki-67 expression on peripheral T cells of patients by flow cytometry; type: in vivo, human
Excerpt: T cell proliferation was examined by analyzing Ki-67 expression using flow cytometry analysis. Soluble CD137 (sCD137) levels in plasma were also examined using a validated MSD-based electrochemiluminescence assay.

[13] = system: rabbit blood; experiment: In vitro hemolysis in rabbit blood; conditions: concentrations up to 2.54 mg/mL
Excerpt: Furthermore, with the cytoplasmic nature of the staining, no significant biological relevancy is anticipated.

[14] = Clinical immunogenicity, anti-drug antibody (ADA) immunoassay; type: in vivo, human
Description: Blood samples were collected as described in the PK analysis. The anti-drug-antibody (ADA) to ADG106 in human serum was measured using a validated Affinity Capture and Elution (ACE) based immunoassay. All samples were first analyzed for ADAs in a screening assay. Study samples with results below the screening cut-off were reported as negative for ADAs. In the event of a positive result in the screening assay, samples were analyzed in the confirmatory assay. All samples confirmed positive were reported as positive.

[15] = Clinical pharmacokinetics, serum ADG106 by ELISA, non-compartmental analysis
Description: as §4

[16] = system: 4T1 breast cancer cells; experiment: 4T1 breast cancer model, ADG106 with ADG116; type: in vivo, BALB/c mice; conditions: ADG106 5 mg/kg, ADG116 2 mg/kg i.p. twice a week for 2 weeks
Excerpt: as §2

[17] = system: NK (CD16+/CD56+) cells; experiment: TBNK flow cytometry of patient peripheral blood, NK cell percentage; type: in vivo, human; conditions: 32 patients analyzed
[18] = target: CD137 (Homo sapiens, UniProt Q07011); experiment: Receptor occupancy calculated from drug plasma concentration and KD
[19] = system: CD137; experiment: Binding to recombinant CD137 and CD137 on activated T cells; design: species or system human
Excerpt: as §3

[20] = system: human blood; experiment: Cytokine release in human blood ex vivo; type: cell-based
[21] = system: MC38 colon cancer cells; experiment: MC38 colon cancer model, ADG106 with local radiation; type: in vivo, C57BL/6 mice; conditions: 10 mg/kg twice a week for 3 weeks
Description: C57BL/6 mice (n=8 per group, female, 6-8 weeks old) were transplanted subcutaneously with 5×10^5 MC38 colon cancer cells. […] Tumor growth was monitored twice weekly and reported as mean tumor volume ±SEM over time.

[22] = system: L5178-R murine T cell lymphoma; experiment: L5178-R murine T cell lymphoma syngeneic model; type: in vivo, DBA/2 mice; conditions: 20 mg/kg i.p. once every 3 days
Excerpt: as §1

Chain of CD137 (Homo sapiens, UniProt Q07011) (Q07011 24-255): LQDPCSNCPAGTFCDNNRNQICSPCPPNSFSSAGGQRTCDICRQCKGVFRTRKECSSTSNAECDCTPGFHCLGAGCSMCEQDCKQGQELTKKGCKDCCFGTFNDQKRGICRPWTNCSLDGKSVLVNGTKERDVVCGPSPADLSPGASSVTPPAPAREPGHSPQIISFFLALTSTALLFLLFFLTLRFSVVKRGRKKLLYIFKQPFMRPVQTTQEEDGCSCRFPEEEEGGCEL
Chain of CD137 / CD137 ligand (4-1BBL) (Q07011 24-255): as above

ADG106: fully human agonistic anti-CD137 monoclonal IgG4 antibody; heavy chain SEQ ID NO: 10, light chain SEQ ID NO: 11
NOAEL and HNSTD ([1]; cynomolgus monkey, in vivo): > 200 mg/kg | NOEL and NOAEL ([1]; once weekly IV infusion up to 29 days): 200 mg/kg | antitumor activity [2]: has antitumor activity | anti-tumor activity, monotherapy [3]: showed anti-tumor activity | T1/2 ([4]; 0.03 mg/kg): 87 h | T1/2 ([4]; 0.3 mg/kg): 159 h | T1/2 ([4]; 1 mg/kg): 146.3 h | T1/2 ([4]; 3 mg/kg): 149 h | anti-tumor activity, mono-therapy [5]: marginal anti-tumor activity | single agent efficacy in CT-26, H22 and EMT6 syngeneic models ([6]; mouse, in vivo): single agent anti-tumor efficacy | median effective dose (ED50) ([6]; syngeneic mouse liver and breast cancer models): approximately 1 mg/kg | tumor growth, single agent [7]: significantly inhibit tumor growth | blocking of the interaction of CD137 to the CD137 ligand (4-1BBL) [8]: fully blocks | concentration range triggering observable, not maximal T cell activation ([9]; in vitro): 1 to 3 µg/mL | concentration range triggering robust T cell activation ([9]; with anti-CD3 antibody co-treatment): ≥ 10 µg/mL | tumor growth, single agent [10]: only weakly inhibited tumor growth | potency to activate recombinant human, monkey, mouse, and rat CD137 receptors [11]: comparable nanomolar potency | increase in the frequency of Ki-67+CD4+ T cells ([12]; patient R011): increased about one fold | increase in the frequency of proliferating CD8+ T cells ([12]; patient R011): four to five fold increase | total CD8+ T cells expressing Ki-67 at peak ([12]; patient R011, 21 days after infusion): ~25% | hemolysis [13]: no ADG106-related hemolysis | treatment emergent or boosted ADA ([14]; Chinese patients tested so far): 5 of 23 | patients with treatment-induced anti-drug antibodies ([14]; patients tested): about 20% | AUC(0-t) ([15]; Chinese study, 0.1 mg/kg IV): 255 µg·h/mL | CLz ([15]; Chinese study, 0.1 mg/kg IV): 8.88 mL/day/kg | AUC(0-t) ([15]; Chinese study, 0.5 mg/kg IV): 1761 µg·h/mL | CLz ([15]; Chinese study, 0.5 mg/kg IV): 6.72 mL/day/kg | T½ ([15]; Chinese study, 0.5 mg/kg IV): 146 h | AUC(0-t) ([15]; Chinese study, 1.5 mg/kg IV): 4162 µg·h/mL | CLz ([15]; Chinese study, 1.5 mg/kg IV): 7.92 mL/day/kg | T½ ([15]; Chinese study, 1.5 mg/kg IV): 180 h | AUC(0-t) ([15]; Chinese study, 3 mg/kg IV): 10016 µg·h/mL | CLz ([15]; Chinese study, 3 mg/kg IV): 6 mL/day/kg | T½ ([15]; Chinese study, 3 mg/kg IV): 214 h | AUC(0-t) ([15]; Chinese study, 5 mg/kg IV): 20966 µg·h/mL | CLz ([15]; Chinese study, 5 mg/kg IV): 5.28 mL/day/kg | T½ ([15]; Chinese study, 5 mg/kg IV): 173 h | AUC(0-t) ([15]; Chinese study, 10 mg/kg IV): 39658 µg·h/mL | CLz ([15]; Chinese study, 10 mg/kg IV): 5.52 mL/day/kg | T½ ([15]; Chinese study, 10 mg/kg IV): 132 h | AUC(0-t) ([15]; US study, cycle 1, 0.03 mg/kg IV, n=1): 0.626 µg·h/mL | AUC(0-t) ([15]; US study, cycle 1, 0.1 mg/kg IV, n=1): 0.668 µg·h/mL | AUC(0-t) ([15]; US study, cycle 1, 0.3 mg/kg IV, n=1): 1.387 µg·h/mL | AUC(0-t) ([15]; US study, cycle 1, 1 mg/kg IV, n=3): 3.8767 µg·h/mL | AUC(0-t) ([15]; US study, cycle 1, 3 mg/kg IV, n=3): 18.42 µg·h/mL | mean half-life ([15]; doses ≥0.5 mg/kg): around 7 days | anti-tumor activity, monotherapy [16]: showed anti-tumor activity | patients with a decrease of the NK cell level [17]: 6% | patients with no change of the NK cell level [17]: 6% | patients with an increase of the NK cell level in peripheral blood ([17]; after first cycle): 88% | Receptor occupancy ([18]; 0.03 mg/kg): 58% | Receptor occupancy ([18]; 0.1 mg/kg): 82% | Receptor occupancy ([18]; 0.3 mg/kg): 93% | Calculated Receptor Occupancy ([18]; 1 mg/kg): 98% | affinity to CD137 on activated cynomolgus monkey and human T cells [19]: low nanomolar affinity | cytokine (IL-2, IL-4, IL-6, IL-10, TNF-α, IFN-γ, IL-17) release [20]: did not stimulate cytokine | antitumor activity, alone [21]: marginal if any antitumor activity | antitumor activity [22]: resistant to ADG106 treatment
